Results as given in patent publication US20160289684.

Columns and labels:
[1] = molecular target: T1, GST fusion protein containing the NFAT2 phosphorylation site S151 flanked with 9-11 amino acids (UniProt O95644)
T1 sequence: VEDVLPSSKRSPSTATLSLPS

[2] = molecular target: T2, GST fusion protein containing the NFAT2 phosphorylation site S161 flanked with 9-11 amino acids (UniProt O95644)
T2 sequence: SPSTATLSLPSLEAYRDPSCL

[3] = tested on: T3, GST fusion protein carrying the SP3 motif of NFAT
T3 sequence: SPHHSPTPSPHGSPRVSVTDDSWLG

[4] = tested on: T4, GST fusion protein carrying the SP2 motif of NFAT
T4 sequence: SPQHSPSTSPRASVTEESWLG

[5] = molecular target: T5, GST fusion protein containing the N-terminal regulatory domain (amino acids 1-319) of NFAT2 (UniProt O95644)
T5 sequence: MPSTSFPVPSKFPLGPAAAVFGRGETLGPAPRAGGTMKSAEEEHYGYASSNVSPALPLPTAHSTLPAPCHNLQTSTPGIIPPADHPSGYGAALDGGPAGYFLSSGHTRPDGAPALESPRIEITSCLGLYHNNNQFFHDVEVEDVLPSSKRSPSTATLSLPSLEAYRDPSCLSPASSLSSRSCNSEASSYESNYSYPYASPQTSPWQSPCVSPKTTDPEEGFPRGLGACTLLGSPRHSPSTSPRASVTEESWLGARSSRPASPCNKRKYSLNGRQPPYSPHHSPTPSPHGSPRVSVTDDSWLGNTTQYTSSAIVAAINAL

[6] = molecular target: T6, GST fusion protein containing the NFAT2 phosphorylation site S324 flanked with 9-11 amino acids (UniProt O95644)
T6 sequence: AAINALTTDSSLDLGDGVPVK

IKKε purified from 293T cells
in vitro kinase assay [1]: peptides containing three serines, except the peptides containing S^117, were phosphorylated by IKKε in vitro | in vitro kinase assay [2]: peptides containing three serines, except the peptides containing S^117, were phosphorylated by IKKε in vitro | in vitro kinase assay [3]: IKKε efficiently phosphorylated the SP3 motif | in vitro kinase assay [4]: weakly the SP2 site | in vitro kinase assay [5]: purified IKKε was sufficient to phosphorylate the N-terminal regulatory domain (amino acids 1-319) of NFAT2 by an in vitro kinase assay | in vitro kinase assay [6]: peptides containing three serines, except the peptides containing S^117, were phosphorylated by IKKε in vitro
